Data published in patent US20170298096A1 (CANIMGUIDE THERAPEUTICS, published 2017).
No end group written: not given here.

T1: His-tagged P3028 (human, also: His-tag, terminus and sequence not given here)
T1 construct: used in solution in the PEPSCAN (rampo) ELISA; also called PGE73; His-tag-P3028; not shown: His tag
T1 peptide: VFDEFKPLVEEPQNLIK


Target: T1, His-tagged P3028
Experiment: PEPSCAN ELISA (rampo)
Procedure: After washing, the peroxidase substrate 2,2′-azine-di-3-ethylbenzthiazoline sulfonate (ABTS) and 2 μL of 3% H2O2 were added. The binding capacity of the mAb was measured as a color development at 405 nm (optical density, OD405). The color development was quantified with a charge-coupled device (CCD)—camera and an image processing system.
The OD405-values obtained by a CCD-camera was considered as raw data values (“rampo values,” “rampo units,” or “rampo scores”). […] First the CCD-camera made a picture of the card before peroxidase coloring and then again a picture after the peroxidase coloring. […] These values were copied into an excel file and labeled as a raw data file. One follow-up manipulation was allowed. Sometimes a well can contain an air-bubble resulting in a false-positive value. If manual inspection of the cards detect an air-bubble the value are set to 0 for that well.

Row | Binder | rampo score relative to the P28R control sample | RAMPO Score
1 | KKLDTTFVKLSLFTER [SEQ ID NO 318] | ≥ 98 % of P28R control | –
2 | KKLDTFFPKLSLFTER (also called P28R with P at position 8) [SEQ ID NO 329] | ≥ 98 % of P28R control | ≥ 302 rampo units
3 | KKLDTFFLKLSLFTER (also called P28R with L at position 8) [SEQ ID NO 328] | ≥ 98 % of P28R control | ≥ 302 rampo units
4 | KKLDTFFVKASLFTER [SEQ ID NO 332] | ≥ 98 % of P28R control | –
5 | KKLDTFFVKTSLFTER [SEQ ID NO 342] | ≥ 98 % of P28R control | –
6 | KKLDTFFRKLSLFTER (also called P28R with R at position 8) [SEQ ID NO 330] | ≥ 98 % of P28R control | ≥ 302 rampo units
7 | KKLDTFTVKLSLFTER [SEQ ID NO 324] | ≥ 98 % of P28R control | –
8 | KKLDTFVVKLSLFTER [SEQ ID NO 325] | ≥ 98 % of P28R control | –
9 | KKLDTFFVKVSLFTER [SEQ ID NO 343] | ≥ 98 % of P28R control | –
10 | KKLDTFFFKLSLFTER (also called P28R with F at position 8) [SEQ ID NO 326] | ≥ 98 % of P28R control | ≥ 302 rampo units
11 | KKLDTFMVKLSLFTER [SEQ ID NO 321] | ≥ 98 % of P28R control | –
12 | KKLDTFFGKLSLFTER (also called P28R with G at position 8) [SEQ ID NO 327] | ≥ 98 % of P28R control | ≥ 302 rampo units
13 | KKLDTFQVKLSLFTER [SEQ ID NO 322] | ≥ 98 % of P28R control | –
14 | KKLDTFFVKNSLFTER [SEQ ID NO 337] | ≥ 98 % of P28R control | –
15 | KKLDTFSVKLSLFTER [SEQ ID NO 323] | ≥ 98 % of P28R control | –
16 | KKLDTFFVKFSLFTER [SEQ ID NO 333] | ≥ 98 % of P28R control | –
17 | KKLDTFFVKPSLFTER [SEQ ID NO 338] | ≥ 98 % of P28R control | –
18 | KKLDTFFVKGSLFTER [SEQ ID NO 334] | ≥ 98 % of P28R control | –
19 | KKLDTFFVKYSLFTER [SEQ ID NO 344] | ≥ 98 % of P28R control | –
20 | KKLDTFLVKLSLFTER [SEQ ID NO 320] | ≥ 98 % of P28R control | –
21 | KKLDTFFVKQSLFTER [SEQ ID NO 339] | ≥ 98 % of P28R control | –
22 | KKLDTFFVKSSLFTER [SEQ ID NO 341] | ≥ 98 % of P28R control | –
23 | KKLDTFFVKMSLFTER [SEQ ID NO 336] | ≥ 98 % of P28R control | –
24 | KKLDTFFVKRSLFTER [SEQ ID NO 340] | ≥ 98 % of P28R control | –
25 | KKLDTFFVKISLFTER [SEQ ID NO 335] | ≥ 98 % of P28R control | –
26 | KKLDTVFVKLSLFTER [SEQ ID NO 319] | ≥ 98 % of P28R control | –
27 | KKLDTFFVRLSLFTER [SEQ ID NO 331] | ≥ 98 % of P28R control | –

Now from value to binder:

Row | rampo score relative to the P28R control sample | RAMPO Score | Binder
28 | ≥ 98 % of P28R control | – | KKLDTFFVKLSLCTER [SEQ ID NO 362]
29 | ≥ 98 % of P28R control | – | KKLDTFFVKLNLFTER [SEQ ID NO 347]
30 | ≥ 98 % of P28R control | – | KKLDTFFVKLSVFTER [SEQ ID NO 359]
31 | ≥ 98 % of P28R control | – | KKLDTFFVKLQLFTER [SEQ ID NO 348]
32 | ≥ 98 % of P28R control | – | KKLDTFFVKLSWFTER [SEQ ID NO 360]
33 | ≥ 98 % of P28R control | – | KKLDTFFVKLSAFTER [SEQ ID NO 350]
34 | ≥ 98 % of P28R control | – | KKLDTFFVKLSMFTER [SEQ ID NO 353]
35 | ≥ 98 % of P28R control | – | KKLDTFFVKLHLFTER [SEQ ID NO 345]
36 | ≥ 98 % of P28R control | – | KKLDTFFVKLSTFTER [SEQ ID NO 358]
37 | ≥ 98 % of P28R control | – | KKLDTFFVKLTLFTER [SEQ ID NO 349]
38 | ≥ 98 % of P28R control | – | KKLDTFFVKLSIFTER [SEQ ID NO 352]
39 | ≥ 98 % of P28R control | – | KKLDTFFVKLSLGTER [SEQ ID NO 363]
40 | ≥ 98 % of P28R control | – | KKLDTFFVKLSNFTER [SEQ ID NO 354]
41 | ≥ 98 % of P28R control | – | KKLDTFFVKLSLATER [SEQ ID NO 361]
42 | ≥ 98 % of P28R control | – | KKLDTFFVKLSQFTER [SEQ ID NO 355]
43 | ≥ 98 % of P28R control | – | KKLDTFFVKLSRFTER [SEQ ID NO 356]
44 | ≥ 98 % of P28R control | – | KKLDTFFVKLMLFTER [SEQ ID NO 346]
45 | ≥ 98 % of P28R control | – | KKLDTFFVKLSSFTER [SEQ ID NO 357]
46 | ≥ 98 % of P28R control | – | KKLDTFFVKLSHFTER [SEQ ID NO 351]
